Measured values taken from US20250090639A1, “CONTROLLED-RELEASE CNP AGONISTS WITH LOW INITIAL NPR-B ACTIVITY” (priority 2016, published 2025).

Experiments:
[1] = Evaluation of cardiovascular effects in the conscious telemetered mouse (subcutaneous administration); assay type: in vivo, Male Crl: CD1(1CR) mice; conditions: 800 μg CNP-38 (eq)/kg sc
Protocol: Male Crl: CD1(1CR) mice (age range 8-13 weeks and body weight range 27.3-35.6 g at start of dosing) were surgically implanted with a TA11PA-C10 telemetry transmitter (Data Sciences International (DSI)) in the carotid artery. The body of the transmitter was placed subcutaneously in the lateral flank of the mouse. The mice were dosed subcutaneously in a latin square crossover design with at least 72 hours between dosing occasions. […] At least four mice were included at each dose level. Blood pressure (systolic (SAP), diastolic (DAP) and mean (MAP) and heart rate (HR, derived from blood pressure), were recorded using a digital data capture system linked with a DSITM Ponemah data acquisition and analysis system. The capture system allowed recording of the cardiovascular parameters whilst the mice were in individual cages. On the day of each test session the animals were weighed and a predose recording was performed for at least 60 min prior to dosing. Each mouse was returned to the home cage and the cardiovascular parameters were recorded for approximately 48 hours postdose. Blood pressure and HR were reported at the following time points: −30, −20, −10, 5, 15 and 30 min postdose and 1, 2, 6, 12, 18, 24, 30, 36, 42 and 48 hours postdose. Each time point was presented as the average value of five minute's recording prior to the time point. […]

[2] = biological target: T1, recombinant human NEP (Homo sapiens, UniProt P08473); assay: Digest of CNP variants by Neutral Endopeptidase in vitro; assay type: in vitro ADME; conditions: 100 μg CNP equivalents/mL, pH 7.4, 37° C., up to 4 days, normalized to mean CNP-34 or CNP-38 half life
T1 construct: purchased Enzo Life Sciences GmbH, Lörrach, Germany
Source text: Samples were taken at different time intervals. […] The resulting reaction products were assigned using HPLC-MS.

[3] = Pharmacokinetic profile of conjugate 11i after subcutaneous single-dose administration to cynomolgus monkeys; assay type: in vivo; conditions: single s.c. 40 μg CNP-38 eq/kg
Protocol: As internal standard deuterated CNP-38 conjugate was used.
After 3 hours incubation at 37° C. […] 10 μL were injected into the UHPLC-MS system.

T1 sequence (P08473 whole entry): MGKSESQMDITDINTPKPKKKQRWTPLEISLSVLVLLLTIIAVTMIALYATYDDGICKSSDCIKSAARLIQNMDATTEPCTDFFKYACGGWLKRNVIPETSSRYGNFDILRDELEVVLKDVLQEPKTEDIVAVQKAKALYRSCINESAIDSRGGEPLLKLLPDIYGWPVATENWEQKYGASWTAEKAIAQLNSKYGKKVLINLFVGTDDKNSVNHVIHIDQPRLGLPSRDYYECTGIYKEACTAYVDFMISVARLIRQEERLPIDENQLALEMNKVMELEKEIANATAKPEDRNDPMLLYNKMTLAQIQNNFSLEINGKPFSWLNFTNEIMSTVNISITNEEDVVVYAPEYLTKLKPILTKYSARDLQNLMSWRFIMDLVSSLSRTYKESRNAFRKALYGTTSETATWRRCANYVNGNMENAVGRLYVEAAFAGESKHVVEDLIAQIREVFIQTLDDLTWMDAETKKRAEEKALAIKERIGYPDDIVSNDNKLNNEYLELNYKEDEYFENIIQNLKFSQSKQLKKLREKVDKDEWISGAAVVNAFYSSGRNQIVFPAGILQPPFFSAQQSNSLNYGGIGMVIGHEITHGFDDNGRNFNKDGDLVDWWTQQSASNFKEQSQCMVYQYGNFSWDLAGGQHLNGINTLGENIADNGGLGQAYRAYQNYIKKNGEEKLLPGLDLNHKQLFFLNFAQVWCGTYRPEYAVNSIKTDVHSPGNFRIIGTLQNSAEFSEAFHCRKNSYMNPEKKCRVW

Compound	half life norm. [2]	further results
CC[C@H](C)[C@@H]1NC(=O)[C@H](CCCNC(=N)N)NC(=O)[C@H](CC(=O)O)NC(=O)[C@H](CC(C)C)NC(=O)[C@H](CCCCN)NC(=O)[C@H](CC(C)C)NC(=O)CNC(=O)[C@H](Cc2ccccc2)NC(=O)[C@@H](NC(=O)CNC(=O)[C@H](CCCCN)NC(=O)[C@H](CO)NC(=O)[C@H](CC(C)C)NC(=O)CNC(=O)[C@H](CCCCN)NC(=O)[C@H](CCCCN)NC(=O)[C@H](CC(N)=O)NC(=O)[C@H](C)NC(=O)CNC(=O)[C@H](CCCCN)NC(=O)[C@H](Cc2ccc(O)cc2)NC(=O)[C@H](CCCCN)NC(=O)[C@H](CCCNC(=N)N)NC(=O)[C@H](C)NC(=O)[C@H](CC(N)=O)NC(=O)[C@@H]2CCCN2C(=O)[C@H](Cc2c[nH]cn2)NC(=O)[C@H](CCC(=O)O)NC(=O)[C@H](CCC(N)=O)NC(=O)[C@@H](N)CC(C)C)CSSC[C@@H](C(=O)O)NC(=O)CNC(=O)[C@H](CC(C)C)NC(=O)CNC(=O)[C@H](CO)NC(=O)[C@H](CCSC)NC(=O)[C@H](CO)NC(=O)CNC1=O [CNP-38, reference compound]		effect on HR [1]: not impacted; effect on MAP / blood pressure ([1]; 5, 15 and 30 min post dose): significant decrease in MAP
Permanent Lys16 CNP-34 PEG 5 kDa Conjugate [Conjugate 17e]	54.23 h	
Permanent Lys22 CNP-34 PEG 5 kDa Conjugate [Conjugate 18e]	38.87 h	
Permanent Lys26 CNP-38 PEG4×10 kDa Conjugate [Conjugate 12g]	Almost no proteolysis	
Permanent Lys26 CNP-38 PEG 5 kDa Conjugate [Conjugate 19e]	62.76 h	
Permanent N-Terminal CNP-34 PEG 5 kDa Conjugate [Conjugate 14e]	Almost no proteolysis	
Permanent N-Terminal CNP-38 PEG 5 kDa Conjugate [Conjugate 15e]	Almost no proteolysis	
Reversible Lys26 CNP-38 PEG4×10 kDa Conjugate [Conjugate 11i]		tolerability [3]: well tolerated
